Results: paper PMC10978961, “Architecture and activation of human muscle phosphorylase kinase” (Nature Communications, 2024)

Target: the molecule itself
Assay: cryo-EM structure; inactive PhK holoenzyme, dephosphorylated, with 4 mM EGTA and excess calmodulin; 25 mM HEPES pH 6.8, 150 mM NaCl, 2 mM DTT; subunits co-expressed and purified as a complex

B1: human muscle phosphorylase kinase (PhK) β-subunit (natural protein, UniProt Q93100 1-1093, looked up)
chain: MAGAAGLTAEVSWKVLERRARTKRSGSVYEPLKSINLPRPDNETLWDKLDHYYRIVKSTLLLYQSPTTGLFPTKTCGGDQKAKIQDSLYCAAGAWALALAYRRIDDDKGRTHELEHSAIKCMRGILYCYMRQADKVQQFKQDPRPTTCLHSVFNVHTGDELLSYEEYGHLQINAVSLYLLYLVEMISSGLQIIYNTDEVSFIQNLVFCVERVYRVPDFGVWERGSKYNNGSTELHSSSVGLAKAALEAINGFNLFGNQGCSWSVIFVDLDAHNRNRQTLCSLLPRESRSHNTDAALLPCISYPAFALDDEVLFSQTLDKVVRKLKGKYGFKRFLRDGYRTSLEDPNRCYYKPAEIKLFDGIECEFPIFFLYMMIDGVFRGNPKQVQEYQDLLTPVLHHTTEGYPVVPKYYYVPADFVEYEKNNPGSQKRFPSNCGRDGKLFLWGQALYIIAKLLADELISPKDIDPVQRYVPLKDQRNVSMRFSNQGPLENDLVVHVALIAESQRLQVFLNTYGIQTQTPQQVEPIQIWPQQELVKAYLQLGINEKLGLSGRPDRPIGCLGTSKIYRILGKTVVCYPIIFDLSDFYMSQDVFLLIDDIKNALQFIKQYWKMHGRPLFLVLIREDNIRGSRFNPILDMLAALKKGIIGGVKVHVDRLQTLISGAVVEQLDFLRISDTEELPEFKSFEELEPPKHSKVKRQSSTPSAPELGQQPDVNISEWKDKPTHEILQKLNDCSCLASQAILLGILLKREGPNFITKEGTVSDHIERVYRRAGSQKLWLAVRYGAAFTQKFSSSIAPHITTFLVHGKQVTLGAFGHEEEVISNPLSPRVIQNIIYYKCNTHDEREAVIQQELVIHIGWIISNNPELFSGMLKIRIGWIIHAMEYELQIRGGDKPALDLYQLSPSEVKQLLLDILQPQQNGRCWLNRRQIDGSLNRTPTGFYDRVWQILERTPNGIIVAGKHLPQQPTLSDMTMYEMNFSLLVEDTLGNIDQPQYRQIVVELLMVVSIVLERNPELEFQDKVDLDRLVKEAFNEFQKDQSRLKEIEKQDDMTSFYNTPPLGKRGTCSYLTKAVMNLLLEGEVKPNNDDPCLIS
modifications: farnesyl group on Cys1090 (mass spectrometry; density in the cryo-EM maps); treated with λ-phosphatase
notes: phosphorylase kinase β-subunit, human, full length; domains D1-D5; Forms the central β4 homotetramer of the hexadecamer
stoichiometry N: 4
